{"source": "the nanobody polyreactivity screen of Harvey et al. (2022)"}
{"test": "yeast display, Sf9 membrane polyspecificity reagent, FACS + sequencing; frameworks hold sequencing errors", "outline": "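Sorting gates, low and high (top ~1%), were placed on anti-HA fluorescence to track expression and on streptavidin fluorescence to track reagent binding. A clone's polyreactivity label is taken from the gate it came out of. The reagent was 10% biotinylated, detergent-solubilized Sf9 membrane, applied for 1 hour at 4 °C to galactose-induced yeast display cells.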"}
{"sequence": "QVQLVESCGGLVQAGGSLRLSCAASGRTFFGYAMGGYRQAPGKERELVAAINWGGASTYYADSVKGRFTISRDNAKNTVYLQMNSLKPEETAVYYCAADSVPSRPTYGRYDYWGQGTQVTVSS", "polyreactivity (PSR sort gate)": "low polyreactivity"}
{"sequence": "QVQLVESCGGLVQAGGSLRLSCAASGRTFYFYAMGWYRQAPGKERELVAAISSTGGSTYYADSVKGRFTISRDNAKNTVYIQMNSLKPEDTAVYYCAARKSPRGRGEFYWGQGTQVTVSS", "polyreactivity (PSR sort gate)": "high polyreactivity"}
{"sequence": "QVQLVESCGGLVQAGGSLRLSCAASGSIIFPYALGWYRQAPGKERELVAAISWSGGRTYYADSVKGRFTISRDNAKNTVYLQMNSLKPEDTAVYYCAADGYPYFYGDFDYWGQGTQVNVSS", "polyreactivity (PSR sort gate)": "high polyreactivity"}
{"sequence": "QVQLVESCGGLVQAGGSLRLSCAASGSTFVYYAMGWYRQAPGKERELVAAISSGGSTYYADSVKGRFTISRDNAKNTVFLQMNSLKPEDTAVYDCAAKFGWGYTTYYYCGQGTQVTVSS", "polyreactivity (PSR sort gate)": "high polyreactivity"}
{"sequence": "QVQLVESCGGLVQAGGSLRLSCAPSGSIFVCYAMGWYRQAPWKEREFVAAITSGRGTYYADSVKGRFTRSRDNAQITVYLQMNSLKPEDTEVYYCNTVWRTRSFRAPAVAYGYWGQGTQVTVSS", "polyreactivity (PSR sort gate)": "high polyreactivity"}
{"sequence": "QVQLVESCGGLVQAGGSLRLSCDASVSIFYRNAMGWYRQAPGKERELVAAIRSGGSTNYADSVKGRFTISRDNAKNTVYLQMNSLKPEDTAVYYCAAGYFWRQYKMGYWGQGTQVTVSS", "polyreactivity (PSR sort gate)": "high polyreactivity"}
{"sequence": "QVQLVESCGGLVQAGGSLRLSSAASGRIFYAYVMGWYRQAPGKERELVADITSSGSTNYADTVKGRFTISRDNAKKTVYLQLISLKQEDTAVFYCAKVPYGYQVRRNFGYWGQGTQVTVSS", "polyreactivity (PSR sort gate)": "low polyreactivity"}
{"sequence": "QVQLVESDGGLDQAGRSLRLSFAASGTIFDPYSMGWYRQEPGKERELVAAISWSDSSTYYADSVKGRFTISRDNAKNTVYLQKNSLKPEDTAVYYCASDYDLYFYLYEYWGQGTQVTVSS", "polyreactivity (PSR sort gate)": "high polyreactivity"}
{"sequence": "QVQLVESGAALVQAGGSLRLSCAASGRTFWFNAMGWYRQPPGKERELVASISLSVGSTYYADSVKGRFTISRDNAKNTVYLQMNSLKAEDTAVYNCAADQTVHISSYDYWGQGTQVTVSS", "polyreactivity (PSR sort gate)": "low polyreactivity"}
{"sequence": "QVQLVESGACLVQAGGSLRLSCAASGFIFPRNAMGWYRQAPGKERELVAAITKSGGSTYYADSVKGRFTISRDNAKNTVYLQMNSLKPEDTAVYYCAATDSATELYYRMDYWGQGTQVTVSS", "polyreactivity (PSR sort gate)": "high polyreactivity"}
{"sequence": "QVQLVESGAGIVQAGGSLRLSCAASGSTFGINAMGWYRQAPGKEREFVASISWSTGTTYYADSVKGRFTISRDNAKNTVYLQRNSLKPEDTAVYYCAADSSRFYGRPRYYYWGQGTQVTVSS", "polyreactivity (PSR sort gate)": "high polyreactivity"}
{"sequence": "QVQLVESGAGLVHAGGSLRLSCAASGNTFIDYAMGWYRQAPGKERELVASITSGGGSTYYADSVKGRFTISRDNEKNTDYLQMNSLKPEDTAVFFFAAERYNSEAIFRSYDYWGQGSQVTVSS", "polyreactivity (PSR sort gate)": "low polyreactivity"}
{"sequence": "QVQLVESGAGLVQAAGSLRLSCDASGYIFEWNAMGWYRQAPGKERELVASIDSDGSTYYADSVKGRFTISRDNAKNTVYLQMNSLKPEDTAVYYSAKSIDGWYWRRRRYDYWGQGTQVTVSS", "polyreactivity (PSR sort gate)": "low polyreactivity"}
{"sequence": "QVQLVESGAGLVQAGASLRLSCDASAFIYVTYAMGWYRQAPGKEMELVAAITNSGGTTYYADSVKGRFTISRDNAKNTVYLQMNSLKPEDTAVYYCNKPYGGETAHREFDYWGQGTQVTVSS", "polyreactivity (PSR sort gate)": "low polyreactivity"}
{"sequence": "QVQLVESGAGLVQAGGSLPLSCAASGSTFPKYAMGWYRQAPGKEREFVSAITSSGGRTFYADSVKGRFTISRDNAKNTVYLQMNSLKPEDTAVYYCAAYYYSWSGAFIYEYWGQGTQETVSS", "polyreactivity (PSR sort gate)": "high polyreactivity"}
{"sequence": "QVQLVESGAGLVQAGGSLRISCAASGFTFQKNAMGWYRQSPGKERELVAAISSSGGSTYYADSVKGRFTISRDNAKNTVYLQMNSMKPDDTAVYYCNAVTLANKYNDYGYWGQGTQVTVSS", "polyreactivity (PSR sort gate)": "high polyreactivity"}
